{"source": "paper PMC8113546", "proteins": {"B1": {"name": "mouse B7H3: 2F-Fuc (protein)", "parent chain": "MLRGWGGPSVGVCVRTALGVLCLCLTGAVEVQVSEDPVVALVDTDATLRCSFSPEPGFSLAQLNLIWQLTDTKQLVHSFTEGRDQGSAYSNRTALFPDLLVQGNASLRLQRVRVTDEGSYTCFVSIQDFDSAAVSLQVAAPYSKPSMTLEPNKDLRPGNMVTITCSSYQGYPEAEVFWKDGQGVPLTGNVTTSQMANERGLFDVHSVLRVVLGANGTYSCLVRNPVLQQDAHGSVTITGQPLTFPPEALWVTVGLSVCLVVLLVALAFVCWRKIKQSCEEENAGAEDQDGDGEGSKTALRPLKPSENKEDDGQEIA"}, "B2": {"name": "mouse B7H3: B7H3-4NQ (protein)", "parent chain": "B1 parent chain"}, "B3": {"name": "B7H3: tunicamycin (TM) (protein)", "parent chain": "MLRRRGSPGMGVHVGAALGALWFCLTGALEVQVPEDPVVALVGTDATLCCSFSPEPGFSLAQLNLIWQLTDTKQLVHSFAEGQDQGSAYANRTALFPDLLAQGNASLRLQRVRVADEGSFTCFVSIRDFGSAAVSLQVAAPYSKPSMTLEPNKDLRPGDTVTITCSSYQGYPEAEVFWQDGQGVPLTGNVTTSQMANEQGLFDVHSILRVVLGANGTYSCLVRNPVLQQDAHSSVTITPQRSPTGAVEVQVPEDPVVALVGTDATLRCSFSPEPGFSLAQLNLIWQLTDTKQLVHSFTEGRDQGSAYANRTALFPDLLAQGNASLRLQRVRVADEGSFTCFVSIRDFGSAAVSLQVAAPYSKPSMTLEPNKDLRPGDTVTITCSSYRGYPEAEVFWQDGQGVPLTGNVTTSQMANEQGLFDVHSVLRVVLGANGTYSCLVRNPVLQQDAHGSVTITGQPMTFPPEALWVTVGLSVCLIALLVALAFVCWRKIKQSCEEENAGAEDQDGEGEGSKTALQPLKHSDSKEDDGQEIA"}, "B4": {"name": "B7H3: B7H3-8NQ (protein)", "parent chain": "B3 parent chain"}, "B5": {"name": "B7H3: 2F-Fuc (protein)", "parent chain": "B3 parent chain"}, "B6": {"name": "B7H3: FUT8 knockout (protein)", "parent chain": "B3 parent chain"}}, "key": {"[1]": {"test": "B7H3 IHC of 4T1 B7H3-WT tumours", "conditions": "glycan changed form; control: PBS"}, "[2]": {"test": "flow cytometry of cell-surface B7H3, 4T1-B7H3KO", "conditions": "glycan lost; control: B7H3-WT"}, "[3]": {"test": "flow cytometry of cell-surface B7H3", "conditions": "glycan lost"}, "[4]": {"test": "IP of B7H3-WT-Flag, ubiquitin immunoblot", "conditions": "glycan lost; control: untreated"}, "[5]": {"test": "CHX chase, remaining B7H3 by immunoblot (half-life)", "conditions": "glycan lost"}, "[6]": {"test": "flow cytometry of cell-surface B7H3, MDA-MB-231", "conditions": "glycan changed form; control: untreated"}, "[7]": {"test": "immunoblot, MDA-MB-231 and HCC1806", "conditions": "glycan changed form; control: control sgRNA"}, "[8]": {"test": "flow cytometry of cell-surface B7H3, B7H3-WT cells", "conditions": "glycan changed form; control: control sgRNA"}}}
{"protein": "B1", "values": [{"measurement": "expression_or_secretion", "setting": "[1]", "value": "decreases"}]}
{"protein": "B2", "values": [{"measurement": "localisation_or_trafficking", "setting": "[2]", "value": "abolishes"}]}
{"protein": "B3", "values": [{"measurement": "localisation_or_trafficking", "setting": "[3]; control: untreated", "value": "decreases"}, {"measurement": "other: K48 ubiquitination", "setting": "[4]", "value": "increases"}, {"measurement": "degradation_or_half_life", "setting": "[5]; control: untreated", "value": "decreases"}]}
{"protein": "B4", "values": [{"measurement": "localisation_or_trafficking", "setting": "[3]; control: B7H3-WT", "value": "abolishes"}, {"measurement": "degradation_or_half_life", "setting": "[5]; control: B7H3-WT", "value": "decreases"}]}
{"protein": "B5", "values": [{"measurement": "localisation_or_trafficking", "setting": "[6]", "value": "decreases"}]}
{"protein": "B6", "values": [{"measurement": "expression_or_secretion", "setting": "[7]", "value": "decreases"}, {"measurement": "localisation_or_trafficking", "setting": "[8]", "value": "decreases"}]}
